Measurements taken from the FLAb antibody collection (doi:10.7554/elife.23156).

B1: scFv; the commonest letter at each place (parent)
chain 1: EVKLDETGGGLVQPGRPMKLSCVASGFTFSDYWMNWVRQSPEKGLEWVAQIRNKPYNYETYYSDSVKGRFTISRDDSKSSVYLQMNNLRVEDMGIYYCTGSYYGMDYWGQGTSVTVS
chain 2: DVVMTQTPLSLPVSLGDQASISCRSSQSLVHSNGNTYLRWYLQKPGQSPKVLIYKVSNRFSGVPDRFSGSGSGTDFTLKISRVEAEDLGVYFCSQSTHVPWTFGGGTKLEIK

How the values were obtained:
fluorescein = variants of: B1; experiment: Kd (Tite-Seq); settings: with fluorescein; format: scFv 4-4-20, heavy + light
[1] = variants of: B1; experiment: yeast surface expression (ratio to wild type); higher = more expressed; settings: format: scFv 4-4-20, heavy + light

Variant | Kd (fluorescein) [µM] | yeast surface expression [1]
chain 1 EVKLDETGGGLVQPGRPMKLSCVASGFILSDYWMNWVRQSPEKGLEWVAQIRNKPYNYETYYSDSVKGRFTISRDDSKSSVYLQMNNLRVEDMGIYYCTGSYYGMDYWGQGTSVTVS chain 2 DVVMTQTPLSLPVSLGDQASISCRSSQSLVHSNGNTYLRWYLQKPGQSPKVLIYKVSNRFSGVPDRFSGSGSGTDFTLKISRVEAEDLGVYFCSQSTHVPWTFGGGTKLEIK [chain 1 T28I F29L] | 0.0318 | 0.851
chain 1 EVKLDETGGGLVQPGRPMKLSCVASGFTFSDYWPRWVRQSPEKGLEWVAQIRNKPYNYETYYSDSVKGRFTISRDDSKSSVYLQMNNLRVEDMGIYYCTGSYYGMDYWGQGTSVTVS chain 2 DVVMTQTPLSLPVSLGDQASISCRSSQSLVHSNGNTYLRWYLQKPGQSPKVLIYKVSNRFSGVPDRFSGSGSGTDFTLKISRVEAEDLGVYFCSQSTHVPWTFGGGTKLEIK [chain 1 M34P N35R] | ≥ 10 | 1.16
chain 1 EVKLDETGGGLVQPGRPMKLSCVASGFTFSDYWMNWVRQSPEKGLEWVAQIRNKPYNYETYYSDSVKGRFTISRDDSKSSVYLQMNNLRVEDMGIYYCTGSKYLMGYWGQGTSVTVS chain 2 DVVMTQTPLSLPVSLGDQASISCRSSQSLVHSNGNTYLRWYLQKPGQSPKVLIYKVSNRFSGVPDRFSGSGSGTDFTLKISRVEAEDLGVYFCSQSTHVPWTFGGGTKLEIK [chain 1 Y102K G104L D106G] | ≥ 10 | 0.302
chain 1 EVKLDETGGGLVQPGRPMKLSCVASGFTFSDYWMNWVRQSPEKGLEWVAQIRNKPYNYETYYSDSVKGRFTISRDDSKSSVYLQMNNLRVEDMGIYYCTGSYYGMDNWSQGTSVTVS chain 2 DVVMTQTPLSLPVSLGDQASISCRSSQSLVHSNGNTYLRWYLQKPGQSPKVLIYKVSNRFSGVPDRFSGSGSGTDFTLKISRVEAEDLGVYFCSQSTHVPWTFGGGTKLEIK [chain 1 Y107N G109S] | 0.0391 | 0.836
chain 1 EVKLDETGGGLVQPGRPMKLSCVASGFEFSDVWMNWVRQSPEKGLEWVAQIRNKPYNYETYYSDSVKGRFTISRDDSKSSVYLQMNNLRVEDMGIYYCTGSYYGMDYWGQGTSVTVS chain 2 DVVMTQTPLSLPVSLGDQASISCRSSQSLVHSNGNTYLRWYLQKPGQSPKVLIYKVSNRFSGVPDRFSGSGSGTDFTLKISRVEAEDLGVYFCSQSTHVPWTFGGGTKLEIK [chain 1 T28E Y32V] | ≥ 10 | 1.14
chain 1 EVKLDETGGGLVQPGRPMKLSCVASGFTFSDYWMNWVRQSPEKGLEWVAQIRNKPYNYETYYSDSVKGRFTISRDDSKSSVYLQMNNLRVEDMGIYYCTGSYYAMQEWGQGTSVTVS chain 2 DVVMTQTPLSLPVSLGDQASISCRSSQSLVHSNGNTYLRWYLQKPGQSPKVLIYKVSNRFSGVPDRFSGSGSGTDFTLKISRVEAEDLGVYFCSQSTHVPWTFGGGTKLEIK [chain 1 G104A D106Q Y107E] | ≥ 10 | 0.519
chain 1 EVKLDETGGGLVQPGRPMKLSCVASGFTFSDYWMNWVRQSPEKGLEWVAQIRNKPYNYETYYSDSVKGRFTISRDDSKSSVYLQMNNLRVEDMGIYYCTASYYLMMYWGQGTSVTVS chain 2 DVVMTQTPLSLPVSLGDQASISCRSSQSLVHSNGNTYLRWYLQKPGQSPKVLIYKVSNRFSGVPDRFSGSGSGTDFTLKISRVEAEDLGVYFCSQSTHVPWTFGGGTKLEIK [chain 1 G100A G104L D106M] | ≥ 10 | 0.244
chain 1 EVKLDETGGGLVQPGRPMKLSCVASGFTFSDYWMKWSRQSPEKGLEWVAQIRNKPYNYETYYSDSVKGRFTISRDDSKSSVYLQMNNLRVEDMGIYYCTGSYYGMDYWGQGTSVTVS chain 2 DVVMTQTPLSLPVSLGDQASISCRSSQSLVHSNGNTYLRWYLQKPGQSPKVLIYKVSNRFSGVPDRFSGSGSGTDFTLKISRVEAEDLGVYFCSQSTHVPWTFGGGTKLEIK [chain 1 N35K V37S] | ≥ 10 | 0.732
chain 1 EVKLDETGGGLVQPGRPMKLSCVASGFTFSDYWMNWVRQSPEKGLEWVAQIRNKPYNYETYYSDSVKGRFTISRDDSKSSVYLQMNNLRVEDMGIYYCTGSYYGSNYWGQGTSVTVS chain 2 DVVMTQTPLSLPVSLGDQASISCRSSQSLVHSNGNTYLRWYLQKPGQSPKVLIYKVSNRFSGVPDRFSGSGSGTDFTLKISRVEAEDLGVYFCSQSTHVPWTFGGGTKLEIK [chain 1 M105S D106N] | ≥ 10 | 0.443
chain 1 EVKLDETGGGLVQPGRPMKLSCVASGFTFSDYWMNWVRQSPEKGLEWVAQIRNKPYNYETYYSDSVKGRFTISRDDSKSSVYLQMNNLRVEDMGIYYCTGAYYNMDYWGQGTSVTVS chain 2 DVVMTQTPLSLPVSLGDQASISCRSSQSLVHSNGNTYLRWYLQKPGQSPKVLIYKVSNRFSGVPDRFSGSGSGTDFTLKISRVEAEDLGVYFCSQSTHVPWTFGGGTKLEIK [chain 1 S101A G104N] | ≥ 10 | 0.72
chain 1 EVKLDETGGGLVQPGRPMKLSCVASGFTFSGLWMNWVRQSPEKGLEWVAQIRNKPYNYETYYSDSVKGRFTISRDDSKSSVYLQMNNLRVEDMGIYYCTGSYYGMDYWGQGTSVTVS chain 2 DVVMTQTPLSLPVSLGDQASISCRSSQSLVHSNGNTYLRWYLQKPGQSPKVLIYKVSNRFSGVPDRFSGSGSGTDFTLKISRVEAEDLGVYFCSQSTHVPWTFGGGTKLEIK [chain 1 D31G Y32L] | 0.0302 | 0.645
chain 1 EVKLDETGGGLVQPGRPMKLSCVASGFTFSDYWMNWVRQSPEKGLEWVAQIRNKPYNYETYYSDSVKGRFTISRDDSKSSVYLQMNNLRVEDMGIYYCTGSYYGPDYWIQGTSVTVS chain 2 DVVMTQTPLSLPVSLGDQASISCRSSQSLVHSNGNTYLRWYLQKPGQSPKVLIYKVSNRFSGVPDRFSGSGSGTDFTLKISRVEAEDLGVYFCSQSTHVPWTFGGGTKLEIK [chain 1 M105P G109I] | ≥ 10 | 0.208
